Experimental data: patent US20250179196A1 (Janssen / Centocor, published 2025)

Key:
[1] = biological target: T1, Recombinant human IL-23 receptor (IL-23R) extracellular domain (ECD) protein (human, UniProt Q5VWK5 24-355); assay: SPR Biacore 8K, purified, analysis 2
T1 construct: also called human IL-23R ECD; hu IL-23R ECD
T1 sequence: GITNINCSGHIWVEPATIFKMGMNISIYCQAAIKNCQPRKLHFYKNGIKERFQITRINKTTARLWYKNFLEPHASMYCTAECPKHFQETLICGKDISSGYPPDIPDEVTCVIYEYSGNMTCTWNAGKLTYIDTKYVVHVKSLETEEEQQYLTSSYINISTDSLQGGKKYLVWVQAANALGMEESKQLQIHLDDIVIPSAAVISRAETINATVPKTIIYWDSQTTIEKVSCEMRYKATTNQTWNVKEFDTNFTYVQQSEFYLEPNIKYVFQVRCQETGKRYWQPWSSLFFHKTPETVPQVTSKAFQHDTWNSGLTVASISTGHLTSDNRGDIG
Experimental: (§1) Affinity by SPR using Biacore 8K. Affinity measurements using Surface Plasmon Resonance (SPR) were performed using a Biacore 8K system (Cytiva). […] Approximately 9000-10000 RU (response units) of mAbs were immobilized. The kinetic experiments were performed at 25° C. in running buffer 1× of (HBS-P+ Buffer 10× (Cytiva #BR100671)+100 μg/ml BSA). To perform kinetic experiments, approximately 150 RU of mAbs were captured followed by injections of human IL-23R or rat IL-23R at concentrations ranging from 0.8 nM to 500 nM (in a 5-fold serial dilution). The association phase was monitored for 3 minutes at 50 μL/min, then followed by 30 minutes of buffer flow (dissociation phase). […] The collected data were processed using Biacore insight Evaluation software (Version 3.0.12.15655). The kinetic analysis of the data was performed using a Langmuir 1:1 binding model. The result for each mAb was reported in the format of Ka (On-rate), Kd (Off-rate) and KD (equilibrium dissociation constant).

[2] = biological target: T1, Recombinant human IL-23 receptor …; assay: SPR Biacore 8K, supernatant, analysis 2
How it was run: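 mAbs captured (~150 RU) on Biacore 8K; human or rat IL-23R ECD injected at 0.8–500 nM (5-fold series) at 25 °C in HBS-P+ with 100 μg/ml BSA. Association 3 min at 50 μL/min, dissociation 30 min. Ka, Kd and KD from Langmuir 1:1 fit.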

[3] = biological target: T1, Recombinant human IL-23 receptor …; assay: SPR ProteOn, purified
Experimental: Affinity by SPR using ProteOn. Affinity measurements using Surface Plasmon Resonance (SPR) were performed using a ProteOn XPR36 system (BioRad). […] Approximately 6000 RU (response units) of mAbs were immobilized. The kinetic experiments were performed at 25° C. in running buffer (DPBS+0.01% P20+100 μg/ml BSA). […] The association phase was monitored for 3 minutes at 50 μL/min, then followed by 10 minutes of buffer flow (dissociation phase). The chip surface was regenerated with two 18 second pulses of 100 mM H3PO4 (Sigma, Cat #7961) at 100 μL/min. The collected data were processed using ProteOn Manager software. First, the data was corrected for background using inter-spots. Then, double reference subtraction of the data was performed by using the buffer injection for analyte injections. The kinetic analysis of the data was performed using a Langmuir 1:1 binding model. The result for each mAb was reported in the format of Ka (On-rate), Kd (Off-rate) and KD (equilibrium dissociation constant).

[4] = biological target: T2, rat IL-23R extracellular domain (ECD) protein (rat); assay: SPR Biacore 8K, purified
T2 construct: also called rat IL-23R ECD; F1LX96 amino acids 24-354
T2 chain: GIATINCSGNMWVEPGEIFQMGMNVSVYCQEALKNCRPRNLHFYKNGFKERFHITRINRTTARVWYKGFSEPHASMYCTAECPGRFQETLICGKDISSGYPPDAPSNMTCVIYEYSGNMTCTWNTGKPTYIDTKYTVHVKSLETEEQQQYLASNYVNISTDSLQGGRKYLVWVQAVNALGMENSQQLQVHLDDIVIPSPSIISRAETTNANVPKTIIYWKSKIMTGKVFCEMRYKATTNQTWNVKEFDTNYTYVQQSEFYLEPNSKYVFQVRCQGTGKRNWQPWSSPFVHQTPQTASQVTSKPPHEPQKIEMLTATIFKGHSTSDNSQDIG
Experimental: as §1

[5] = biological target: T3, human IL-23R expressed on the cell surface of stably transfected iLite and HEK cell lines (human, UniProt Q5VWK5 24-629); assay: flow cytometry on human IL-23R HEK cells, Expt D (8-point, 96well)
T3 construct: whole, on cells; Same receptor on two transfected cell lines; the cell line is named under assay; also called human IL-23R iLite cells; human IL-23R HEK cells
T3 sequence (looked up): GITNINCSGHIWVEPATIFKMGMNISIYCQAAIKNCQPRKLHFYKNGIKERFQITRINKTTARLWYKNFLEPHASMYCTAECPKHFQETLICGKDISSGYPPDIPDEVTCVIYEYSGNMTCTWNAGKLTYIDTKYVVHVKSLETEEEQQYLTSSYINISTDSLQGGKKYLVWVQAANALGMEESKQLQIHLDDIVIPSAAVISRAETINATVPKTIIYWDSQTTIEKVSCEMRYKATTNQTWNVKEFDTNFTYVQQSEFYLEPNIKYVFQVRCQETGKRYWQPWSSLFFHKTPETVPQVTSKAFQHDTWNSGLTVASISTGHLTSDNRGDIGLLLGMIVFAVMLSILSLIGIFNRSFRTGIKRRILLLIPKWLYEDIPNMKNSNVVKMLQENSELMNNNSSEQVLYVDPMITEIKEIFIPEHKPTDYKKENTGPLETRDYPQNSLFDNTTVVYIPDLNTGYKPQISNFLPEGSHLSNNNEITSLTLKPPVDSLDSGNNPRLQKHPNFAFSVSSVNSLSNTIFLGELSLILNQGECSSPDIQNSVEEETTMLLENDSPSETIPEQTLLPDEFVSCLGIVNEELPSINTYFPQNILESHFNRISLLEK
How it was run: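 Serially diluted IL-23R mAbs bound to mixed HEK-IL-23R and parental HEK cells for 30 min at 37 °C, in duplicate. After washes, 647 detection antibody geometric MFI measured on single viable (Sytox Green-negative) cells and fitted to a variable-slope dose-response against log mAb concentration.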

[6] = biological target: T4, human IL-23R extracellular domain (ECD) protein (human, UniProt Q5VWK5 24-355); assay: column 'Affinity to hu IL-23R ECD' (summary of SPR data)
T4 construct: Recombinant ECD; also called hu IL-23R ECD
T4 sequence: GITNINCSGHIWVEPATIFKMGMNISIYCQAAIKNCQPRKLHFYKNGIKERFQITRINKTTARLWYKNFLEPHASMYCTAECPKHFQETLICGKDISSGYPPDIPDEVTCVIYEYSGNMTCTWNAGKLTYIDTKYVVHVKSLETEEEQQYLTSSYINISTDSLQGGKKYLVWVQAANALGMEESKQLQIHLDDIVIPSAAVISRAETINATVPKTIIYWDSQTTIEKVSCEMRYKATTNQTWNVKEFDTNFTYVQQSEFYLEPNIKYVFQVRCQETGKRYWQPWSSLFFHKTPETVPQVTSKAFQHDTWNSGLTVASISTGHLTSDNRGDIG

[7] = biological target: T3, human IL-23R expressed on the cell …; assay: flow cytometry on human IL-23R HEK cells, Expt E (11-point, 384well)
How it was run: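 Antibody bound to HEK-IL-23R cells 30 min at 37 °C over 11 concentrations; after washes, Sytox Green added and cells run on iQue. Geometric MFI of 647 detection antibody on single viable cells fitted by variable-slope dose–response.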

B1: I23RB7 (antibody, mouse IgG2a, kappa, V domains shown)
VH: QIQLVQSGPELKKPGETVKISCKASGYTFTTYGMSWVKQAPGKGLKWMGWINTYSGVPTYADDFKGRFAFSLETSASTAYLQINNLKNEDTATYYCARRDRYGYVAGAFAYWGQGTLVTVSS
VL: QIVLTQSPAIMSASPGEKVTMTCSASSSVSYMYWYQQKPGSSPRLLIYDTSNLASGVPVRFSGSGSGTSYSLTISRMEAEDAATYYCQQWSSYPWTFGGGTKLEIKR
notes: phage display (mouse library); mouse antibody, mouse IgG2a/kappa
- Kd [1]: 1.23 nM
- koff [1]: 0.000246 s⁻¹
- kon [1]: 199000 M⁻¹ s⁻¹
- Kd [2]: 1.23 nM
- koff [2]: 0.000247 s⁻¹
- kon [2]: 200000 M⁻¹ s⁻¹
- Kd [3]: 0.39 nM
- koff [3]: 0.000226 s⁻¹
- kon [3]: 581000 M⁻¹ s⁻¹
- Kd [4]: 524 nM
- koff [4]: 0.0127 s⁻¹
- kon [4]: 24200 M⁻¹ s⁻¹

B2: I23RB318 (antibody, mouse IgG2a, kappa, V domains shown)
VH: QVQLVQSGAEVKKPGSSVKVSCKASGGTFSSYAISWVRQAPGQGLEWMGGIIPIFGTANYAQKFQGRVTITADESTSTAYMELSSLRSEDTAVYYCARVRARHRGSFDYWGQGTLVTVSS
VL: DIQMTQSPSSLSASVGDRVTITCRASQSIDRWLNWYQQKPGKAPKLLIYYASSLQSGVPSRFSGSGSGTDFTLTISSLQPEDFATYYCQQSYSTPLTFGQGTKVEIKR
notes: phage display; human V, mouse IgG2a/kappa
- EC50 [5]: 0.5 nM
- Kd [6]: 21 nM
- EC50 [7]: 7.1 nM
- MFI (6.4 nM) [7]: 196000 MFI

B3: I23RB85 (antibody, mouse IgG2a, kappa, V domains shown)
VH: DVQLQESGPGLVAPSQSLSITCTVSGFSFNTYAITWVRQPPGRGLEWLGVLWPGGGISYNLALKSRLTISRDSSKSQVFLEMNSLQTDDTARYYCARNWRHYDGSYAMDFWGQGTSVTVSS
VL: DIVLTQSPLSLFVSLGDQASISCRSSQSLVHSNGNTYLHWYLQKPGQSPKLLIYKVSNRFSGVPDRFSGSGSGTDFTLKISRVEAEDLGVYFCSQSTHVPWTFGGGTRLEIKR
notes: immunization; mouse IgG2a/kappa
- EC50 [5]: ~0.6 nM
- Kd [6]: 1 nM
- EC50 [7]: 13.5 nM
- MFI (6.4 nM) [7]: 64000 MFI

B4: I23RB56 (antibody, mouse IgG2a, kappa, V domains shown)
VH: EVKLVESGGGLVKPGGSLKLSCAASGFTFSSYAMSWVRQTPEKRLEWVAAINSNDGSTYYPDTVKDRFTISRDNAKNTLYLQMSSLRSEDTALYYCARHFLYFSNFYYFDYWGQGTTLTVSS
VL: DIVMTQSPKFLLVSAGDRVTITCKASQSVSNDVAWYQQKPGQSPKLLIYYASNRYTGVPDRFTGSGYGTVFTFTISTVQAEDLAVYFCQQDYSSPFTFGSGTKLEIKR
notes: as for B3
- EC50 [5]: 0.7 nM
- Kd [6]: 26 to 68 nM
- EC50 [7]: > 50 nM
- MFI (6.4 nM) [7]: 118000 MFI

B5: I23RB42 (antibody, mouse IgG2a, kappa, V domains shown)
VH: EVQLQQSGAELVKPGASVKISCKASGYSFTDYIMNWVKQSHGKSLEWIGNINPYFGFTSYNQEFKGKATLTVDKSSSTAYMLLNSLTSEDSAVYYCSRGSYYGYETFFDYWGQGTTLTVSS
VL: DIVLTQTAPSVPVTPGESVSISCRSSKSLLHSNGNTYLYWFLQRPGQSPQLLIYRMSNLASGVPDRFSGSGSGTAFTLRISRVEAEDVGVYYCMQHLEYPYTFGSGTRLEIKR
notes: as for B3
- EC50 [5]: 0.2 nM
- Kd [6]: ≤ 0.1 nM
- EC50 [7]: 3.1 nM
- MFI (6.4 nM) [7]: 353000 MFI

B6: I23RB45 (antibody, mouse IgG2a, kappa, V domains shown)
VH: QVTLKESGPGILQPSQTLSLTCSFSGFSLSTYGMGVSWIRQPSGKGLEWLAHIYWDDDKRYNPSLKSRLTISKDTSNNQVFLKITSVDTADTATYYCAQRALPLLGQKAPFDYWGQGTTLTVSS
VL: DIVLTQSQKFISTSVGDRVSITCKASQNVRTAVAWYQQKPGQSPKLLIYLPSNRHTGVPDRFTGSGSGTVFTLTISNVQSEDQADYFCLQHWNYPLTFGAGTKLELKR
notes: as for B3
- EC50 [5]: 0.4 nM
- Kd [6]: 2 nM
- EC50 [7]: 4.5 nM
- MFI (6.4 nM) [7]: 228000 MFI

B7: I23RB30 (antibody, mouse IgG2a, kappa, V domains shown)
VH: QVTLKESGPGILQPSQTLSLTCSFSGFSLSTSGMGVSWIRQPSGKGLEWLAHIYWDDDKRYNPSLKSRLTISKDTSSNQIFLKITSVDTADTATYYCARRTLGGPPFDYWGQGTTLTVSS
VL: DIVLTQSQRFMSTSVGDRVSITCKASQNIRTAVAWYQQKPGQSPKALIYLPSNRHTGVPDRFTGSGSGTDFTLTISNVQSEDLADYFCLQHWNYPLTFGAGTKLELKR
notes: as for B3
- EC50 [5]: 1.2 nM
- Kd [6]: 36 to 46 nM
- EC50 [7]: 8.3 nM
- MFI (6.4 nM) [7]: 185000 MFI
